According to the supplement of paper PMC10126150:
± gives the standard deviation of the averaged measurements.

Test system: ATP
Experiment: switch fluorescence ratio, 500 uM ATP over buffer (Cy3 cluster intensity, sum of 5 cycles each) (fold (ratio)); higher = stronger signal-on switching upon ATP binding; sequences stand for … in TCGTCGGCAGCGTCAGATGTGTATAAGAGACAGTTTTTTTTTTTTTTTTTTTTTTTTT…TC
Conditions: aptamer strand: ATP DNA aptamer (quencher-CACCTGGGGGAGTATTGCGGAGGAAGG + anchor), 100 nM annealed; ATP concentration: 500 uM
Procedure, shortened: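 After annealing to 100 nM quencher-labelled ATP aptamer, Cy3-labelled switching-strand clusters on a modified Illumina MiSeq flow-cell were imaged in selection buffer. A second image followed after 15 min with 500 uM ATP at 22 °C, and five such buffer/ATP cycles were done, each separated by NaOH stripping and re-annealing. The fluorescence ratio, averaged per switch-domain sequence, is summed target-cycle over summed buffer-cycle Cy3 intensity per cluster, with clusters outside 100-1000 RFU excluded.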
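Note: ATP exposure 15 min at 22 °C before imaging.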

Sequence | switch fluorescence ratio
TTAGATGAAG | 0.987 ± 0.031
TTAGATGGGG | 1.01 ± 0.11
TTAGATTACG | 0.998 ± 0.021
TTAGCATATA | 2.42 ± 1.9
TTAGCATGAT | 1.14 ± 0.2
TTAGCCACTT | 1.06 ± 0.066
TTAGCCCTCA | 0.981 ± 0.014
TTAGCGACGG | 0.992 ± 0.03
TTAGCGGGTT | 0.988 ± 0.048
TTAGCGGT | 1.004 ± 0.0093
TTAGCTTTGA | 0.992 ± 0.022
TTAGGAGCTT | 1 ± 0.014
TTAGGATAGG | 1.005 ± 0.0021
TTAGGCACGC | 1.01 ± 0.023
TTAGGCGCCC | 0.981 ± 0.029
TTAGGCGGGG | 1 ± 0.061
TTAGGCGTGG | 1.017 ± 0.006
TTAGGCTAAT | 1.02 ± 0.025
TTAGGCTGCG | 1.06 ± 0.1
TTAGGGACAA | 1.039 ± 0.0064
TTAGGGAGAG | 0.996 ± 0.016
TTAGGGATGG | 0.992 ± 0.023
TTAGGGCTTG | 0.992 ± 0.039

Sequence | switch fluorescence ratio
TTAGGGGAAT | 1.43 ± 0.75
TTAGGGGAGG | 0.9925 ± 0.0098
TTAGGGGCGC | 0.985 ± 0.014
TTAGGGGGAG | 1.03 ± 0.065
TTAGGGGGCT | 1 ± 0.033
TTAGGGGGGA | 0.987 ± 0.032
TTAGGGGGGC | 1.02 ± 0.053
TTAGGGGGGG | 1 ± 0.052
TTAGGGGGTA | 1.12 ± 0.27
TTAGGTAACT | 1.01 ± 0.019
TTAGGTCTCT | 0.977 ± 0.025
TTAGGTTATC | 1.01 ± 0.016
TTAGGTTCTA | 1.08 ± 0.12
TTAGGTTGTT | 1.01 ± 0.013
TTAGTAGAGT | 1 ± 0.013
TTAGTATGGA | 0.9837 ± 0.0013
TTAGTATTAC | 1.05 ± 0.029
TTAGTCAATG | 0.999 ± 0.022
TTAGTCATTC | 0.99 ± 0.038
TTAGTCCCGC | 1.066 ± 0.0024
TTAGTCGATA | 0.9767 ± 0.0021
TTAGTCGGAG | 0.981 ± 0.01
TTAGTCTTGA | 0.9796 ± 0.0028

Sequence | switch fluorescence ratio
TTAGTGACA | 1.042 ± 0.0095
TTAGTGACGT | 1.037 ± 0.0016
TTAGTGATGT | 1.03 ± 0.0097
TTAGTGGGTT | 1.01 ± 0.024
TTAGTGTTTG | 1.02 ± 0.006
TTAGTTATAT | 1.013 ± 0.0099
TTAGTTATTA | 1.017 ± 0.0041
TTAGTTGGGG | 1.01 ± 0.032
TTAGTTGTAG | 0.993 ± 0.026
TTAGTTTGGA | 0.959 ± 0.04
TTAGTTTGGG | 1.02 ± 0.016
TTAGTTTTTA | 0.991 ± 0.022
TTATAAATCT | 1.008 ± 0.0092
TTATAACCTG | 1.02 ± 0.037
TTATAACGTA | 1.07 ± 0.044
TTATAATTAT | 1.09 ± 0.092
TTATACTGGG | 0.992 ± 0.012
TTATAGATAT | 0.994 ± 0.015
TTATAGGCAG | 0.987 ± 0.01
TTATAGGCGT | 1 ± 0.02
TTATAGGTGC | 1.11 ± 0.022
TTATAGGTTA | 1.02 ± 0.015
TTATATACCA | 1.03 ± 0.079

Sequence | switch fluorescence ratio
TTATATATTT | 0.993 ± 0.015
TTATATCAAT | 0.9999 ± 0.0041
TTATATCGTT | 0.998 ± 0.017
TTATATCTTG | 1.0191 ± 0.00086
TTATATGGAG | 0.979 ± 0.034
TTATATGGTG | 0.98 ± 0.041
TTATATGTGA | 1.04 ± 0.011
TTATATTCTG | 0.9893 ± 0.0041
TTATATTTCG | 1 ± 0.032
TTATCAATAA | 1.42 ± 0.57
TTATCATAGG | 1.01 ± 0.012
TTATCATAGT | 1.005 ± 0.0064
TTATCCAGGC | 1.02 ± 0.12
TTATCGAGGC | 1.06 ± 0.059
TTATCGCAGA | 1 ± 0.015
TTATCGCTTA | 1.04 ± 0.098
TTATCGGCCA | 1 ± 0.067
TTATCGGGGC | 1 ± 0.025
TTATCGGTTT | 0.958 ± 0.019
TTATCTAGCT | 1.03 ± 0.023
TTATCTAGGG | 0.997 ± 0.041
TTATCTCATT | 1 ± 0.028
TTATCTGGAT | 1 ± 0.022

Sequence | switch fluorescence ratio
TTATCTGGGA | 0.9995 ± 0.0079
TTATCTGGGG | 1.01 ± 0.055
TTATCTTGTC | 1.03 ± 0.072
TTATCTTTGT | 0.9758 ± 0.007
TTATCTTTTT | 1 ± 0.032
TTATGACTCA | 1.01 ± 0.03
TTATGACTGT | 1.015 ± 0.01
TTATGAGGTG | 1.08 ± 0.061
TTATGATACG | 1.01 ± 0.017
TTATGATGAT | 1.006 ± 0.01
TTATGATGGG | 0.99 ± 0.017
TTATGATTGG | 0.987 ± 0.02
TTATGCACGG | 1.01 ± 0.044
TTATGCACGT | 1.04 ± 0.049
TTATGCAGGA | 0.955 ± 0.057
TTATGCAGGT | 1.0341 ± 0.00034
TTATGCATGA | 1 ± 0.047
TTATGGATAA | 1 ± 0.018
TTATGGATTT | 1.01 ± 0.037
TTATGGGGTA | 1.04 ± 0.049
TTATGGGGTG | 1.01 ± 0.027
TTATGGGTCG | 0.99 ± 0.034
TTATGTCAGC | 1.01 ± 0.023

Sequence | switch fluorescence ratio
TTATGTCTTC | 0.984 ± 0.026
TTATGTGAGG | 0.977 ± 0.034
TTATGTGAGT | 0.972 ± 0.0085
TTATGTGCTG | 1.02 ± 0.041
TTATGTGGAG | 0.974 ± 0.015
TTATGTGGGA | 0.975 ± 0.037
TTATGTGGTA | 1 ± 0.02
TTATGTGTTG | 1.01 ± 0.011
TTATGTTACT | 1.059 ± 0.0023
TTATGTTAGT | 1.01 ± 0.056
TTATTAAAGG | 1.02 ± 0.071
TTATTAAGAA | 1.02 ± 0.063
TTATTAAGAC | 1 ± 0.032
TTATTAGGGC | 1 ± 0.083
TTATTAGTCG | 1.017 ± 0.0064
TTATTATAAT | 0.982 ± 0.021
TTATTATGGC | 0.993 ± 0.05
TTATTATTAC | 1.04 ± 0.062
TTATTATTGT | 0.982 ± 0.037
TTATTGACAT | 0.995 ± 0.021
TTATTGACGC | 0.937 ± 0.095
TTATTGCACG | 1.07 ± 0.068
TTATTGCAGC | 1.07 ± 0.063

Sequence | switch fluorescence ratio
TTATTGCCTT | 1.03 ± 0.025
TTATTGCTTA | 0.97037 ± 0.00059
TTATTGGAGA | 0.996 ± 0.015
TTATTGGAGC | 0.981 ± 0.015
TTATTGGTAT | 0.998 ± 0.018
TTATTGGTCC | 0.989 ± 0.045
TTATTGGTCG | 1.02 ± 0.061
TTATTGGTGG | 0.966 ± 0.04
TTATTGTGTG | 1 ± 0.023
TTATTGTGTT | 1.01 ± 0.028
TTATTTAAAT | 1 ± 0.04
TTATTTAGAG | 0.985 ± 0.027
TTATTTAGGT | 1.01 ± 0.043
TTATTTATAT | 0.971 ± 0.013
TTATTTATGC | 1.02 ± 0.055
TTATTTATTG | 0.99 ± 0.016
TTATTTGCGG | 0.989 ± 0.025
TTATTTGGAG | 0.986 ± 0.025
TTATTTGGGC | 1.06 ± 0.081
